The values below are quoted from earlier work in article PMC7593401.

The data set deals with C3b (Homo sapiens) (UniProt P01024). Briefly: SPR. Background: In SPR one partner is held on a chip, and binding of the other changes the refractive index at the surface.
Chain of C3b (Homo sapiens) (P01024 23-667, chain 1 of 2): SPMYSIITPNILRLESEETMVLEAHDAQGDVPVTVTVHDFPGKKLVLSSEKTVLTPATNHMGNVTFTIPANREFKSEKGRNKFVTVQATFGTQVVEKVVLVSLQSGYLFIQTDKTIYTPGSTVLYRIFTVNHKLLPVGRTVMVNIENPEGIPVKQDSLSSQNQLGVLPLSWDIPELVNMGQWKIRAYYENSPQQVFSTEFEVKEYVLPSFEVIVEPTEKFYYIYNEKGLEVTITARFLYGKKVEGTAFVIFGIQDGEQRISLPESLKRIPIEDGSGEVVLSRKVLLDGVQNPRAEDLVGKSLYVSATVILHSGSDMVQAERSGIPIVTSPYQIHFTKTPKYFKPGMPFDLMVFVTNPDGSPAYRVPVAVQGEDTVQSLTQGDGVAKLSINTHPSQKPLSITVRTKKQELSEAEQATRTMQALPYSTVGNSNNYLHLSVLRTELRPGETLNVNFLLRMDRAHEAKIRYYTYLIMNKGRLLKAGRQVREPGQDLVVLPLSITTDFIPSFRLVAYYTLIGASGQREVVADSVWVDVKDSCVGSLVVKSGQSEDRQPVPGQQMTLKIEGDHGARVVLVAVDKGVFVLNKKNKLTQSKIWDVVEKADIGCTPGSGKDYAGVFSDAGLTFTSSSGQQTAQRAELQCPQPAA
Chain of C3b (Homo sapiens) (P01024 749-1663, chain 2 of 2): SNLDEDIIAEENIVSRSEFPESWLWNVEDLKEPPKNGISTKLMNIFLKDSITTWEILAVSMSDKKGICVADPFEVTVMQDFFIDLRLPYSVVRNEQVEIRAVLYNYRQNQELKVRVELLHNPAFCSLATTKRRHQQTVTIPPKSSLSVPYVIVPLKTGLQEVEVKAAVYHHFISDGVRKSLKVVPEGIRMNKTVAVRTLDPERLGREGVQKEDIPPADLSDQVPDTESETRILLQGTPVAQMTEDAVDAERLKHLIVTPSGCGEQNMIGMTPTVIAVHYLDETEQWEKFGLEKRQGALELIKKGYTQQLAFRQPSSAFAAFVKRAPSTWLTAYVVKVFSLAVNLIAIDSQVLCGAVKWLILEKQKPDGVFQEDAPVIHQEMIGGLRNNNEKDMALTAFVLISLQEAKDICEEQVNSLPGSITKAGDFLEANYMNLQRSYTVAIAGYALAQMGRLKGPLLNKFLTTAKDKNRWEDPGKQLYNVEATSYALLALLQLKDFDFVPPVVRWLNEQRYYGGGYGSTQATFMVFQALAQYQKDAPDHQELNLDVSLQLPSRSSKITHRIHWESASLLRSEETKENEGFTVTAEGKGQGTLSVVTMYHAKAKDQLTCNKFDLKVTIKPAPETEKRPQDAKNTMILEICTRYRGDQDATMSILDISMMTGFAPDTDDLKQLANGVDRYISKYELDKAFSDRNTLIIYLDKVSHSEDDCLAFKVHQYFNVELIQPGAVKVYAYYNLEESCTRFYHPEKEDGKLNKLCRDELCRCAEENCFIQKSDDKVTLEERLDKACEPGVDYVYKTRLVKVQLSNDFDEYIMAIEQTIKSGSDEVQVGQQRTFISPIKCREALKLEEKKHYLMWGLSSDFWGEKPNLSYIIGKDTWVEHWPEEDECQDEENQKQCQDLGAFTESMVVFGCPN

Chain of FHL-1 (P08603 19-1231): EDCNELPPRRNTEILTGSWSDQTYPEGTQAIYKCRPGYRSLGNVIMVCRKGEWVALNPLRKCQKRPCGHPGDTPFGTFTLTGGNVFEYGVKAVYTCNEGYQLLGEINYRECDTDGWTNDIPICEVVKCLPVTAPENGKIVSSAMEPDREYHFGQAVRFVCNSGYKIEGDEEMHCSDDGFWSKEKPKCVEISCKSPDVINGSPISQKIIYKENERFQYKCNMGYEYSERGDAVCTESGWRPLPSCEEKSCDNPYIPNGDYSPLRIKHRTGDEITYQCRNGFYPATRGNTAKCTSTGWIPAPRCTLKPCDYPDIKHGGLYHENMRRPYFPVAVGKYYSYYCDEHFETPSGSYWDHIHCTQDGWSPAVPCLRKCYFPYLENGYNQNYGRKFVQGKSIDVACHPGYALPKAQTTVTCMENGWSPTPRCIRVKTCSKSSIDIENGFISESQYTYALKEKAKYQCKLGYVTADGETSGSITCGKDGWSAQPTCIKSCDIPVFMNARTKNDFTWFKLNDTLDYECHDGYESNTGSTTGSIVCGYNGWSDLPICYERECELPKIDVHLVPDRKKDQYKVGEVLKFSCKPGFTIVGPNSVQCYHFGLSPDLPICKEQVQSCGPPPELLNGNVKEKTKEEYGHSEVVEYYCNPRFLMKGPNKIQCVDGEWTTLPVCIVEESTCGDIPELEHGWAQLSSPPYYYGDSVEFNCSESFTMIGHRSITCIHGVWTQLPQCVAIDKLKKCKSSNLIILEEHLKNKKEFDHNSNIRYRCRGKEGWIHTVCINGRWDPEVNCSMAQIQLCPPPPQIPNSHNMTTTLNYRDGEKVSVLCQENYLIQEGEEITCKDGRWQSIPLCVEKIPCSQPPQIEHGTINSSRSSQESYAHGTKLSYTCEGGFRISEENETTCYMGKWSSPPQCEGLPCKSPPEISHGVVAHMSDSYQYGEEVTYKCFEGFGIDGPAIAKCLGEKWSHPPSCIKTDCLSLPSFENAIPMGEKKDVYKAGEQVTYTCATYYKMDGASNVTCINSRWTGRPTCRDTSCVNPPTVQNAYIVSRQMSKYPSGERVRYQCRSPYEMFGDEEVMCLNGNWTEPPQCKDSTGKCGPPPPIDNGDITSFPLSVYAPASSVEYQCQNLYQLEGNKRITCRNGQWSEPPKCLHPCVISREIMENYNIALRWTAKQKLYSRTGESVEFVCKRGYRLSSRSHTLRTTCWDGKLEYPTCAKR
Chain of Factor H (P08603 19-1231): as above

As usually defined, the Kd is the equilibrium constant for the complex coming apart. For FHL-1 (from UniProt P08603), the Kd is 1000 nM.
As to Factor H (from UniProt P08603), the Kd is 600 nM.
